Data on one protein can be found in ChEMBL document CHEMBL1143079, “Designing better coumarin-based fluorogenic substrates for PTP1B” (Bioorg Med Chem Lett, 2008).

Substrate in data set [1]: COC(=O)Cc1cc(=O)oc2cc(OP(=O)(O)O)ccc12
Substrate in data set [2]: COC(=O)[C@H](Cc1ccc(OP(=O)(O)O)cc1)NC(=O)Cc1cc(=O)oc2cc(OP(=O)(O)O)ccc12
Substrate in data set [3]: NC(=O)Cc1cc(=O)oc2cc(OP(=O)(O)O)ccc12
Substrate in data set [4]: NC(=O)[C@H](Cc1ccc(OP(=O)(O)O)cc1)NC(=O)Cc1cc(=O)oc2cc(OP(=O)(O)O)ccc12
Substrate in data set [5]: O=C(Cc1cc(=O)oc2cc(OP(=O)(O)O)ccc12)NCCc1ccc(O)cc1
Substrate in data set [6]: O=C(Cc1cc(=O)oc2cc(OP(=O)(O)O)ccc12)NCCc1ccc(OP(=O)(O)O)cc1
Substrate in data set [7]: O=C(Cc1cc(=O)oc2cc(OP(=O)(O)O)ccc12)NCc1ccc(OP(=O)(O)O)cc1
Substrate in data set [8]: O=C(Cc1cc(=O)oc2cc(OP(=O)(O)O)ccc12)OCc1ccccc1
Substrate in data set [9]: O=C(O)CCNC(=O)Cc1cc(=O)oc2cc(OP(=O)(O)O)ccc12

The term Km denotes the substrate concentration at which the rate is half of its maximum. Broadly, the kcat is the maximal rate divided by the concentration of active sites.

B1: Tyrosine-protein phosphatase non-receptor type 1 (Homo sapiens), P18031 (protein)
chain: MEMEKEFEQIDKSGSWAAIYQDIRHEASDFPCRVAKLPKNKNRNRYRDVSPFDHSRIKLHQEDNDYINASLIKMEEAQRSYILTQGPLPNTCGHFWEMVWEQKSRGVVMLNRVMEKGSLKCAQYWPQKEEKEMIFEDTNLKLTLISEDIKSYYTVRQLELENLTTQETREILHFHYTTWPDFGVPESPASFLNFLFKVRESGSLSPEHGPVVVHCSAGIGRSGTFCLADTCLLLMDKRKDPSSVDIKKVLLEMRKFRMGLIQTADQLRFSYLAVIEGAKFIMGDSSVQDQWKELSHEDLEPPPEHIPPPPRPPKRILEPHNGKCREFFPNHQWVKEETQEDKDCPIKEEKGSPLNAAPYGIESMSQDTEVRSRVVGGSLRGAQAASPAKGEPSLPEKDEDHALSYWKPFLVNMCVATVLTAGAYLCYRFLFNSNT
Consider B1, for which the Km in [1] amounted to 147 µM; in data set [2] it was 82 µM; in [3] it was 224 µM; in data set [4] it was 149 µM; in data set [6] it was 38 µM; in data set [7], 25 µM. The Km in data set [8] was found to be 36 µM; in [9], 111 µM. Further, the kcat was found to be 8.2 s⁻¹ in data set [1]; 3.4 s⁻¹ in data set [2]; 5 s⁻¹ in data set [3]; 3.2 s⁻¹ in [4]; 4.8 s⁻¹ in [5]; 7.1 s⁻¹ in data set [6]. The kcat in [7] came to 5.2 s⁻¹; in data set [8], 10.5 s⁻¹; in [9], 5.8 s⁻¹.
